Results taken from US20220177587A1, “METHODS AND USES OF VARIANT CD80 FUSION PROTEINS AND RELATED CONSTRUCTS” (Alpine Immune Sciences, Inc., priority 2018, published 2022).
Residue numbers refer to the chain shown, from its start. Names and notes keep the numbering of the source.

B1: K89N (protein)
chain: VIHVTKEVKEVATLSCGHNVSVEELAQTRIYWQKEKKMVLTMMSGDMNIWPEYKNRTIFDITNNLSIVILALRPSDEGTYECVVLKYENDAFKREHLAEVTLSVKAD
B2: M47V/V68M (protein)
chain: B1 chain with M47V, V68M, N89K
B3: E35D/M47V/N48K/K89N (protein)
chain: B1 chain with E35D, M47V, N48K
B4: E35D/M47V/N48K/V68M/L85Q (protein)
chain: B1 chain with E35D, M47V, N48K, V68M, L85Q, N89K
B5: M47V/N48K/V68M (protein)
chain: B1 chain with M47V, N48K, V68M, N89K
B6: E35D/N48K/K89N (protein)
chain: B1 chain with E35D, N48K
B7: E35D/D46V/M47V/N48K/V68M (protein)
chain: B1 chain with E35D, D46V, M47V, N48K, V68M, N89K
B8: E35D/D46V/M47V/V68M/L85Q (protein)
chain: B1 chain with E35D, D46V, M47V, V68M, L85Q, N89K
B9: E35D/N48K (protein)
chain: B1 chain with E35D, N48K, N89K
B10: M47V/N48K/K89N (protein)
chain: B1 chain with M47V, N48K
B11: E35D/M47V/V68M/L85Q/K89N (protein)
chain: B1 chain with E35D, M47V, V68M, L85Q
B12: E35D/K89N (protein)
chain: B1 chain with E35D
B13: H18Y/A26E/E35D/M47L (protein)
chain: B1 chain with H18Y, A26E, E35D, M47L, N89K
B14: M47L/V68M/A71G/D90G (protein)
chain: B1 chain with M47L, V68M, A71G, N89K, D90G
B15: H18Y/V68M/A71G/D90G (protein)
chain: B1 chain with H18Y, V68M, A71G, N89K, D90G

target: T1, CD28 (Homo sapiens, UniProt P10747); test: Jurkat/IL2 + CHO/OKT3 +/- PD-L1 reporter assay: PD-L1-dependent CD28 costimulation; format: cell-based; design: host or cells: Jurkat cells expressing an IL-2-luciferase reporter; conditions: Table E21; Jurkat/IL2 + CHO/OKT3/PD-L1; 5.0 nM
How it was run: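 Jurkat reporter cells (100,000/well) preincubated 15 min at room temperature with test protein, then cocultured 5 h at 37 °C with CHO aAPCs bearing anti-CD3 scFv (OKT3) with or without PD-L1. Luciferase luminescence (RLU) read after lysis-substrate addition.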

| Molecule | Fold Increase over WT CD80-IgV-Fe [fold] |
| --- | --- |
| B1 | 1.0 |
| B2 | 4.8 |
| B3 | 7.1 |
| B4 | 7.9 |
| B5 | 5.8 |
| B6 | 6.3 |
| B7 | 6.1 |
| B8 | 8.5 |
| B9 | 5.1 |
| B10 | 4.1 |
| B11 | 7.4 |
| B12 | 2.5 |

same assay, conditions: Table E21; Jurkat/IL2 + CHO/OKT3/PD-L1; CD80 Conc 5.0 nM

| Molecule | Relative Luciferase Units (RLU), CD80 Conc 5.0 nM [RLU] |
| --- | --- |
| B1 | 116 |
| B2 | 553 |
| B3 | 814 |
| B4 | 907 |
| B5 | 664 |
| B6 | 719 |
| B7 | 696 |
| B8 | 980 |
| B9 | 590 |
| B10 | 472 |
| B11 | 854 |
| B12 | 293 |

same assay, conditions: Table E22; Jurkat/IL2 + CHO/OKT3/PD-L1; 5.0 nM

| Molecule | Fold Increase over WT CD80-IgV-Fe [fold] |
| --- | --- |
| B13 | 3.10 |
| B14 | 1.98 |
| B15 | 2.04 |

same assay, conditions: Table E22; Jurkat/IL2 + CHO/OKT3/PD-L1; CD80 Conc 5.0 nM

| Molecule | Relative Luciferase Units (RLU), CD80 Conc 5.0 nM [RLU] |
| --- | --- |
| B13 | 1208 |
| B14 | 771 |
| B15 | 797 |

target: huPD-L1 (Homo sapiens, UniProt Q9NZQ7); test: Flow binding to CHO cells stably expressing PD-L1; design: huCTLA4 and huPD-L1, full-length mammalian surface expression constructs were generated; expressed in transfected cells; host or cells: CHO cells, lentiviral transduction, sorted to >98% purity; conditions: Table E19; CHO cells stably expressing PD-L1; 33.3 nM
Sequence (Q9NZQ7 19-290): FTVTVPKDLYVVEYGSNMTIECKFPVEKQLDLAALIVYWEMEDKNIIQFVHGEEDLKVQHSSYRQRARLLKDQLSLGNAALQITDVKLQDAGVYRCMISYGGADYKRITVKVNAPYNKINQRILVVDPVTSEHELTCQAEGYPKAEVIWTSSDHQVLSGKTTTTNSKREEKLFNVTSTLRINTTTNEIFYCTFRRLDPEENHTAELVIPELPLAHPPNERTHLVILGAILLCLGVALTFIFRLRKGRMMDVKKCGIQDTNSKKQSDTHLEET
How it was run: (§1)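 Fusion proteins bound to CHO cells stably expressing CTLA4 or PD-L1, or to Jurkat/IL2 reporter cells with endogenous CD28, for 45 min on ice after blocking in PBS/1% BSA. Detection with PE anti-human Fc by flow cytometry; PE MFI per cell type and binding EC50 determined.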

| Molecule | PD-L1 MFI at 33.3 nM |
| --- | --- |
| B1 | 52.8 |
| B2 | 4294 |
| B3 | 6669 |
| B4 | 10479 |
| B5 | 14464 |
| B6 | 5766 |
| B7 | 25940 |
| B8 | 26290 |
| B9 | 6545 |
| B10 | 2366 |
| B11 | 12085 |
| B12 | 757 |

same assay, conditions: Table E19; MFI at 33.3 nM relative to WT CD80 ECD-Fc (Abcam)

| Molecule | PD-L1 Fold change to WT CD80 [fold] |
| --- | --- |
| B1 | 0.4 |
| B2 | 33.5 |
| B3 | 52.1 |
| B4 | 81.9 |
| B5 | 113.0 |
| B6 | 45.0 |
| B7 | 202.7 |
| B8 | 205.4 |
| B9 | 51.1 |
| B10 | 18.5 |
| B11 | 94.4 |
| B12 | 5.9 |

same assay, conditions: Table E19; ratio of MFI at 33.3 nM

| Molecule | Ratio of PDL1:CD28 |
| --- | --- |
| B1 | 0.9 |
| B2 | 13.1 |
| B3 | 9.5 |
| B4 | 88.8 |
| B5 | 22.6 |
| B6 | 14.0 |
| B7 | 23.9 |
| B8 | 79.4 |
| B9 | 33.7 |
| B10 | 6.5 |
| B11 | 49.1 |
| B12 | 3.2 |

same assay, conditions: Table E20; CHO cells stably expressing PD-L1; 33.3 nM

| Molecule | PD-L1 MFI at 33.3 nM |
| --- | --- |
| B13 | 9951 |
| B14 | 31114 |
| B15 | 30670 |

same assay, conditions: Table E20; MFI at 33.3 nM relative to CD80 WT IgV-Fc

| Molecule | PD-L1 Fold change to WT CD80 [fold] |
| --- | --- |
| B13 | 228.2 |
| B14 | 713.6 |
| B15 | 703.4 |

same assay, conditions: Table E20; ratio of MFI at 33.3 nM

| Molecule | Ratio of PDL1:CD28 |
| --- | --- |
| B13 | 30.7 |
| B14 | 8.6 |
| B15 | 9.0 |

target: T1, CD28; test: Flow binding to Jurkat/IL2 reporter cells (CD28); design: host or cells: Jurkat cells expressing an IL-2-luciferase reporter; conditions: Table E19; Jurkats (CD28); 33.3 nM
How it was run: as §1

| Molecule | CD28 MFI at 33.3 nM |
| --- | --- |
| B1 | 56.3 |
| B2 | 328 |
| B3 | 701 |
| B4 | 118 |
| B5 | 641 |
| B6 | 411 |
| B7 | 1085 |
| B8 | 331 |
| B9 | 194 |
| B10 | 366 |
| B11 | 246 |
| B12 | 236 |

same assay, conditions: Table E19; MFI at 33.3 nM relative to WT CD80 ECD-Fc (Abcam)

| Molecule | CD28 Fold change to WT CD80 [fold] |
| --- | --- |
| B1 | 0.1 |
| B2 | 0.5 |
| B3 | 1.0 |
| B4 | 0.2 |
| B5 | 0.9 |
| B6 | 0.6 |
| B7 | 1.5 |
| B8 | 0.5 |
| B9 | 0.3 |
| B10 | 0.5 |
| B11 | 0.3 |
| B12 | 0.3 |

same assay, conditions: Table E20; Jurkats (CD28); 33.3 nM

| Molecule | CD28 MFI at 33.3 nM |
| --- | --- |
| B13 | 324 |
| B14 | 3610 |
| B15 | 3414 |

same assay, conditions: Table E20; MFI at 33.3 nM relative to CD80 WT IgV-Fc

| Molecule | CD28 Fold change to WT CD80 [fold] |
| --- | --- |
| B13 | 7.4 |
| B14 | 82.2 |
| B15 | 77.8 |

target: huCTLA4 (Homo sapiens, UniProt P16410); test: Flow binding to CHO cells stably expressing CTLA4; design: huCTLA4 and huPD-L1, full-length mammalian surface expression constructs were generated; expressed in transfected cells; host or cells: CHO cells, lentiviral transduction, sorted to >98% purity; conditions: Table E19; CHO cells stably expressing CTLA4; 33.3 nM
Sequence (P16410 36-223): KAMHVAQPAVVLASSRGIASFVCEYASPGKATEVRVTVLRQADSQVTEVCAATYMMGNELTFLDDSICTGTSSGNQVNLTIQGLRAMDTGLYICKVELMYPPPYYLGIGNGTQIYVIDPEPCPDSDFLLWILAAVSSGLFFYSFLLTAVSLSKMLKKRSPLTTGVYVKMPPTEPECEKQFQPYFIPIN
How it was run: as §1

| Molecule | CTLA4 MFI at 33.3 nM |
| --- | --- |
| B1 | 944 |
| B2 | 7282 |
| B3 | 43756 |
| B4 | 26104 |
| B5 | 34612 |
| B6 | 34727 |
| B7 | 23880 |
| B8 | 36463 |
| B9 | 41325 |
| B10 | 42071 |
| B11 | 30276 |
| B12 | 21755 |

same assay, conditions: Table E19; MFI at 33.3 nM relative to WT CD80 ECD-Fc (Abcam)

| Molecule | CTLA4 Fold change to WT CD80 [fold] |
| --- | --- |
| B1 | 0.0 |
| B2 | 0.2 |
| B3 | 1.1 |
| B4 | 0.6 |
| B5 | 0.9 |
| B6 | 0.9 |
| B7 | 0.6 |
| B8 | 0.9 |
| B9 | 1.0 |
| B10 | 1.0 |
| B11 | 0.7 |
| B12 | 0.5 |

same assay, conditions: Table E20; CHO cells stably expressing CTLA4; 33.3 nM

| Molecule | CTLA4 MFI at 33.3 nM |
| --- | --- |
| B13 | 23990 |
| B14 | 17418 |
| B15 | 22321 |

same assay, conditions: Table E20; MFI at 33.3 nM relative to CD80 WT IgV-Fc

| Molecule | CTLA4 Fold change to WT CD80 [fold] |
| --- | --- |
| B13 | 17.7 |
| B14 | 12.8 |
| B15 | 16.4 |
